# Data published in article PMC7615931 (Science (New York, N.Y.), 2024).
# How the values were obtained:
# negative-staining EM = biological target: the molecule itself; assay: negative-staining EM
# cryo-EM structure = biological target: the molecule itself; assay: cryo-EM structure
protein,measurement,setting,value
"β-arrestin 2 (βarr2), wild-type, full-length (natural protein, UniProt P32120 1-420, looked up) MGEKPGTRVFKKSSPNCKLTVYLGKRDFVDHLDKVDPVDGVVLVDPDYLKDRKVFVTLTCAFRYGREDLDVLGLSFRKDLFIANYQAFPPTPNPPRPPTRLQERLLRKLGQHAHPFFFTIPQNLPCSVTLQPGPEDTGKACGVDFEIRAFCAKSLEEKSHKRNSVRLVIRKVQFAPEKPGPQPSAETTRHFLMSDRSLHLEASLDKELYYHGEPLNVNVHVTNNSTKTVKKIKVSVRQYADICLFSTAQYKCPVAQVEQDDQVSPSSTFCKVYTITPLLSNNREKRGLALDGKLKHEDTNLASSTIVKEGANKEVLGILVSYRVKVKLVVSRGGDVSVELPFVLMHPKPHDHIALPRPQSAATHPPTLLPSAVPETDAPVDTNLIEFETNYATDDDIVFEDFARLRLKGLKDEDYDDQFC",stoichiometry N,negative-staining EM,3
same,stoichiometry N,cryo-EM structure,2
